Key:
[1] = biological target: carcinoembryonic antigen (CEA) (UniProt P06731); assay: competition RIA, 125I-labelled A5B7 IgG1 on CEA coated beads, purified material
[2] = biological target: carcinoembryonic antigen (CEA) (UniProt P06731); assay: competition RIA on CEA coated beads
[3] = biological target: carcinoembryonic antigen (CEA) (UniProt P06731); assay: competition RIA on CEA coated beads, transfected CHO cell supernatant; apparent A5B7 concentration divided by assembly assay result
[4] = biological target: carcinoembryonic antigen (CEA) (UniProt P06731); assay: competition RIA on CEA coated beads, transfected CHO cell supernatant

carcinoembryonic antigen (CEA), sequence (P06731 35-685 limits assumed): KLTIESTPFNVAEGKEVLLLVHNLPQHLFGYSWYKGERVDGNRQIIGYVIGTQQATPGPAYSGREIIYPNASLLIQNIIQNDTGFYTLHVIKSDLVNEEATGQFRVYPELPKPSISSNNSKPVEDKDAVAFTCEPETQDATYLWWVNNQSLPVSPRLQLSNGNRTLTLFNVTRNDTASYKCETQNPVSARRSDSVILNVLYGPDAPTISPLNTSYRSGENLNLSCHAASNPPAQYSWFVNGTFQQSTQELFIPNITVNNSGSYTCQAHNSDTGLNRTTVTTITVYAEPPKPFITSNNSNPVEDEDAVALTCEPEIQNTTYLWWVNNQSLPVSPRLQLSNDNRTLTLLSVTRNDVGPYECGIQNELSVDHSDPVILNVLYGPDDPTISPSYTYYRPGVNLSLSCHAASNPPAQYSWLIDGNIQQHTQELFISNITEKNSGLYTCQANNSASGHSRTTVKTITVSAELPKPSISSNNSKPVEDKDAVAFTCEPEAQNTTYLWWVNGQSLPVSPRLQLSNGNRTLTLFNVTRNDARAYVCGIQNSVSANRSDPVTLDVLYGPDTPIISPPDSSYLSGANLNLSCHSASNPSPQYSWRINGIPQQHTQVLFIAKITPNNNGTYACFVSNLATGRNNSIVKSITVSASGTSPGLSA

% Relative Potency [1] | fold reduced potency against murine A5B7 IgG [2] | Specific activity [3] | % Relative Potency [4] | Substance
97% | – | – | – | murine A5B7 F(ab')2
8% | 10 fold | – | – | murine A5B7 Fab' (alkylated)
100% | – | 1.17 | 100% | chimeric A5B7 IgG1 whole antibody

From patent WO1992001059A1
